Results taken from patent US10736971B2, “Peptide-based molecules for modulating car expression or accessibility and uses thereof” (Wright State University, priority 2015, dated 2020).

B1: MAGI-1 PDZ3 domain: MAGI-1 PDZ3 decoy domain, expressed from transfected plasmid in CHO-K1 cells (protein)
chain: KETGFGFRILGGNEPGEPIYIGHIVPLGAADTDGRLRSGDELICVDGTPVIGKSHQLVVQLMQQAAKQGHVNLTVR
modifications: PEPTIDE WILL BE CREATED USING CONVENTIONAL MEANS
notes: MAGI-1 PDZ3 decoy domain, expressed from transfected plasmid in CHO-K1 cells
B2: PDZ1 domain: MAGI-1 PDZ1 decoy domain, expressed from transfected plasmid in CHO-K1 cells (protein)
chain: RKSSRGFGFTVVGGDEPDEFLQIKSLVLDGPAALDGKMETGDVIVSVNDTCVLGHTHAQVVKIFQSIP
modifications: PEPTIDE WILL BE CREATED USING CONVENTIONAL MEANS
notes: MAGI-1 PDZ1 decoy domain, expressed from transfected plasmid in CHO-K1 cells

Tested on: AdV-β-Gal
Assay: AdV-β-Gal transduction of transfected CAR-deficient CHO-K1 cells
Assay type: cell-based, Chinese hamster
Details: CHO-K1 transfected with CAR^Ex8, MAGI-1 and PDZ domain plasmids, MOI 100
From the text: CAR-deficient CHO-K1 cells were A) single, B) double, or C) triple transfected with plasmids encoding CAR^Ex8, MAGI-1 (black bars), PDZ1 domain (dotted bars), or PDZ3 domain (white bars), and balanced with empty pcDNA3.1 plasmid, followed by AdV-β-Gal (MOI 100) transduction. CHO-K1 cells were double transfected with CAR^Ex8 and pcDNA3.1, MAGI-1, PDZ3, or PDZ1 and analyzed for D) total CAR^Ex8 protein or E) cell-surface biotinylated CAR^Ex8 protein expression. Quantification of at least three individual experiments is shown in all bar graphs. *p<0.05.

Molecule | Adenovirus infection (AdV-β-Gal transduction)
B1 | decreases
B2 | inhibits MAGI-1-mediated CAR^Ex8 suppression to allow adenovirus infection
